Patent US20260275304A1, “METHODS AND COMPOSITIONS FOR GLYPHOSATE TOLERANCE IN PLANTS” (Monsanto Technology LLC, priority 2023, published 2026)
Numbering of substitutions follows the chain as printed. Names may count otherwise.

B1: TIPS: Zea mays EPSPS double mutant T102I and P106S, SEQ ID NO:9; positive control (protein)
chain: AGAEEIVLQPIKEISGTVKLPGSKSLSNRILLLAALSEGTTVVDNLLNSEDVHYMLGALRTLGLSVEADKAAKRAVVVGCGGKFPVEDSKEEVQLFLGNAGIAMRSLTAAVTAAGGNATYVLDGVPRMRERPIGDLVVGLKQLGADVDCFLGTDCPPVRVNGIGGLPGGKVKLSGSISSQYLSALLMAAPLALGDVEIEIIDKLISIPYVEMTLRLMERFGVKAEHSDSWDRFYIKGGQKYKSPKNAYVEGDASSASYFLAGAAITGGTVTVEGCGTTSLQGDVKFAEVLEMMGAKVTWTETSVTVTGPPREPFGRKHLKAIDVNMNKMPDVAMTLAVVALFADGPTAIRDVASWRVKETERMVAIRTELTKLGASVEEGPDYCIITPPEKLNVTAIDTYDDHRMAMAFSLAACAEVPVAIRDPGCTRKTFPDYFDVLSTFVKN
modifications: Zea mays
notes: positive control
B2: TIPS-P126S-K296R: maize EPSPS variant, probably SEQ ID NO:11 (protein)
chain: B1 chain with P126S, K296R
modifications: Zea mays

Columns and labels:
[1] = tested on: S. cerevisiae strain sKR-024; assay: Mock selection for glyphosate resistance, 50:50 inoculum, flow cytometry; type: cell-based, Saccharomyces cerevisiae
Description: Yeast cultures were either started directly from a random colony or from freezer stock and picked in triplicate into appropriate selective media, either YSC-Ura, YSC-Leu, and YSC-Ura-Leu. Cultures were grown for 48 hours at 30° C. to saturation phase. Fully grown yeast cultures were then diluted back to OD 0.01 and allowed to grow for 48 hours at 30° C. in a 96 deep-well plate shaker. Fluorescence was then analyzed via flow cytometry (BD Accuri C6 Flow Cytometer, BD Biosciences) at an excitation of 588 nm and emission of 633 nm for mKate2 RFP. Yeast populations of interest were then gated according to relative size and complexity using a logarithmic plot of side scatter (SSC) and forward scatter (FSC) and spectra were generated outlining RFP fluorescence intensity vs. cell count. FlowJo software was used to analyze all flow cytometry data.
To do so, a mock selection for glyphosate resistance was achieved by transforming wild-type EPSPS into sKR-024 containing an RFP cassette and TIPS into sKR-024 without an RFP cassette to enable flow cytometry tracking of population distributions. A 50:50 starting inoculum of each strain was cultured in yeast minimal media containing 0, 2.5, 5, 7.5, or 10 mM glyphosate.

transgenic maize plants = assay: Greenhouse glyphosate spray test on hybrid (hemizygous) transgenic maize; type: in vivo, Zea mays; conditions: for Average Injury At 1120 g/ha: Roundup PowerMax3, 1× field rate; for Average Injury At 1120 g/ha / Average Injury At 2240 g/ha: 18 days after treatment, scale of 0 to 100; for Average Injury At 2240 g/ha: Roundup PowerMax3, 2× field rate
Description: To further evaluate the performance of EPSPS variants for glyphosate tolerance, transgenic maize plants comprising a single copy of the transgene encoding the EPSPS variants TIPS-P126S-M217L-K296R or TIPS-P126S-K296R were grown to maturity. Homozygous transgenic plants were crossed with an inbred line to produce hybrid seeds.
Plants from the hybrid seeds (hemizygous for the transgenes) of two independent transformation events for each of the two variants were grown in the greenhouse for glyphosate spray test. Roundup® PowerMax3, a commercial formulation of glyphosate, was applied at the third leaf stage at two rates: 1120 gram/hectare (1× the field rate) and 2240 gram/hectare (2× the field rate). The controls included an untreated untransformed control without glyphosate treatment, an untransformed control sprayed with glyphosate, and a TIPS positive control both sprayed with glyphosate. Glyphosate herbicide injury (plant stunting, chlorosis, necrosis, malformation, and death) was assessed by visual inspection of the plants 18 days after herbicide treatment. Herbicide injury rate was presented on a scale of 0 to 100 with “0” being no visible crop injury and “100” being complete crop injury or death.

Molecule | cell count after addition of glyphosate ([1]; 0, 2.5, 5, 7.5 or 10 mM glyphosate) | cell count in the absence of glyphosate ([1]; 0 mM glyphosate) | tolerance to glyphosate (transgenic maize plants; 2× field rate) | Average Injury At 1120 g/ha (transgenic maize plants) | Average Injury At 2240 g/ha (transgenic maize plants) | tolerance to glyphosate (transgenic maize plants; equivalent 1× field dose)
B1 | consistent cell count across multiple levels of glyphosate | consistently lower cell count of TIPS relative to wild-type EPSPS | minor injuries | 0 | 1.25 | 
B2 |  |  | minor injuries | 0 | 17 | excellent tolerance
